Experimental data from patent US6916472B2, “PON3 and uses thereof” (Regents of the University of Michigan, priority 2000, dated 2005).

Legend:
[1] = system: LDL; assay: Protection of LDL against copper-induced oxidation (conjugated dienes, lipid peroxides); type: biochemical, rabbit; conditions: LDL 0.1 mg protein/ml, 2-10 μM CuSO4, up to 5 h at 37° C.
Method: In one illustrative example (Example 5) of the present invention, the ability of PON3 to protect against LDL oxidation was assayed. In this example, LDL oxidation was induced by the incubation of the lipoprotein with 2-10 μM CuSO4 in the air, in the absence or presence of PON3 or PON 1, for up to 5 h at 37° C. The kinetics of lipoprotein oxidation was followed by monitoring the conjugated dienes formation at 234 nm (Esterbauer et al., Free Radical Res Commun, 6:67-75 [1989]) using a quartz microtiter plate in a SPECTRAmax® 190 plate reader (Molecular Devices). Lipoprotein oxidation was also determined by the lipid peroxides test, which analyzes lipid peroxides by their capacity to convert iodide to iodine, as measured photometrically at 365 nm (E1-Saadani et al., J Lipid Res, 30:627-630 [1989]).
LDL were isolated by ultracentrifugation as described above (Example 4). […] The kinetics of lipoprotein oxidation was followed by monitoring the conjugated dienes formation at 234 nm (Esterbauer et al., Free Radical Res Commun, 6:67-75 [1989]) using a quartz microtiter plate in a SPECTRAmax 190 plate reader (Molecular Devices). Lipoprotein oxidation was also determined by the lipid peroxides test, which analyzes lipid peroxides by their capacity to convert iodide to iodine, as measured photometrically at 365 nm (E1-Saadani et al., J Lipid Res, 30:627-630 [1989]).

[2] = system: mice given LD100 dose of LPS; conditions: cited from earlier work
[3] = Lactonase activity of wild type and mutant rPON3 in expression media of transfected 293T cells; type: biochemical; conditions: Lovastatin hydrolysis; based on quantitation of western blot
Method: The hydrolysis of the statin lactones (mevastatin, lovastatin and simvastatin) was analyzed by high performance liquid chromatography (HPLC) using a Beckman System Gold HPLC with a Model 126 Programmable Solvent Module, a Model 168 Diode Array Detector set at 238 nm, a Model 7125 Rheodyne manual injector valve with a 20 μl loop, and a Beckman ODS Ultrasphere column (C 18, 250×4.6 mm, 5 μm). Lovastatin (Mevacor) and simvastatin were purchased as 20 mg tablets from Merck, from which the lactones were extracted with chloroform, evaporated to dryness and redissolved in methanol. Mevastatin was purchased from Sigma. […]
Samples were eluted isocratically at a flow rate of 1.0 ml/min with a mobile phase consisting of the following: A=acetic acid/acetonitrile/water (2:249:249, v/v/v) and B=acetonitrile, in A/B ratios of 50/50, 45/55 and 40/60 for mevastatin, lovastatin and simvastatin, respectively. […] Response factors for the acid products were calculated from the peak heights after complete alkaline hydrolysis of the lactones in 0.02 M NAOH for 2-24 hours at 25° C.
Expression media from the transient transfection of mutant clones into 293T cells was analyzed for activity towards the lactone Lovastatin up to 4 days post transfection.
Specific activities were calculated based on quantitation of the western blot in FIG. 10. […]

[4] = Statinase activity of samples of BL21(DE3) culture expressing rPON3; type: biochemical; conditions: culture sample
Method: The hydrolysis of the statin lactones (mevastatin, lovastatin and simvastatin) was analyzed by high performance liquid chromatography (HPLC) using a Beckman System Gold HPLC with a Model 126 Programmable Solvent Module, a Model 168 Diode Array Detector set at 238 nm, a Model 7125 Rheodyne manual injector valve with a 20 μl loop, and a Beckman ODS Ultrasphere column (C 18, 250×4.6 mm, 5 μm). Lovastatin (Mevacor) and simvastatin were purchased as 20 mg tablets from Merck, from which the lactones were extracted with chloroform, evaporated to dryness and redissolved in methanol. Mevastatin was purchased from Sigma.
In a final volume of 1 ml, 10-200 μl of enzyme solution and 10 μl of substrate solution in methanol (0.5 mg/ml) were incubated at 25° C. in 50 mM Tris/HCl (pH 7.6), 1 mM CaCl2. Aliquots (100 μl) were removed at specified times and added to acetonitrile (100 μl), vortexed, and centrifuged for one minute at maximum speed (Beckman microfuge). The supernatants were poured into new tubes, capped and stored on ice until HPLC analysis.
Samples were eluted isocratically at a flow rate of 1.0 ml/min with a mobile phase consisting of the following: A=acetic acid/acetonitrile/water (2:249:249, v/v/v) and B=acetonitrile, in A/B ratios of 50/50, 45/55 and 40/60 for mevastatin, lovastatin and simvastatin, respectively. Under the above conditions the retention times for the carboxylic acid formed and the lactone substrate were as follows: 4.5/6.4 min (mevastatin), 4.4/5.6 min (lovastatin) and 5.4/7.7 min (simvastatin), respectively. Response factors for the acid products were calculated from the peak heights after complete alkaline hydrolysis of the lactones in 0.02 M NAOH for 2-24 hours at 25° C.
This Example describes the expression of rabbit PON3 protein in bacteria. The endogenous NcoI site at the translation start site, and an engineered XhoI site in the 3′ UTR were used to clone the rPON3 cDNA into the bacterial expression vector pET24d+. The resulting vector (prPON3/pET24d) was transformed into bacterial BL21(DE3) cells. LB broth supplemented with […] Kanamycin was inoculated with a single colony and the bacteria were grown at 37° C. When the culture reached an OD600 of 0.7, IPTG (1 mM) was added and growth continued. Samples of the culture were taken at the time of induction and 1, 2, 4, and 16 hours post-induction. Samples were electrophoresed through a 10% SDS-PAGE gel and Western blotted with a human PON1 antibody. An inducible, 40 kDa band was visible in the 1, 2, 4, and 16 time point lanes that aligned with a rPON3 standard. The samples were also assayed and found to have 257, 8663, 6178, 5872, and 8436 U/ml statinase activity for time points 0, 1, 2, 4, and 16 respectively.

B1: PON3: paroxonase 3 polypeptide purified from rabbit serum, 40 kDa, SEQ ID NO:8 (protein, listed as Oryctolagus cuniculus)
chain: MAKLLLLTLLGASLAFVGERLLAFRNSFGAVQELEPVEPQNCVLIEGLENGSEDIDILPSGLAFISSGLKYPGMPNFAPDEPGKIFLIDMNEKNPRAQELEISNGFEKESFNPHGISTFIDKDHTVYLYVVNHPHMKSTVEIFKFEEQQRSLVHLKTIKHELLKSVNNIVVLGPEQFYATRDHYFTNYVLALLEMFLDLHWTSVLFYSPKEVKVVAKGFSSANGITVSLDKKYVYVADATAKNVHVMEKHDNWDLTELKVIHLDTLVDNLSVDPATGDILAGCHPNGMKLLNYNPEDPPGSEVLRIQNVLSEKPRVSTVYTNDGSVLQGSTVASVYQGKILIGTIFHKTLYCVL
Question: With B1 as the molecule, how does the “inhibiting conjugated diene and lipid peroxide formation, compared with PON1” value [1] read?
Answer: The value was “significantly better”.

B2: human PON1: purified human PON1 (paraoxonase 1), literature study of LaDu et al. (protein, UniProt P27169 2-355, looked up)
Serum …: AKLIALTLLGMGLALFRNHQSSYQTRLNALREVQPVELPNCNLVKGIETGSEDLEILPNGLAFISSGLKYPGIKSFNPNSPGKILLMDLNEEDPTVLELGITGSKFDVSSFNPHGISTFTDEDNAMYLLVVNHPDAKSTVELFKFQEEEKSLLHLKTIRHKLLPNLNDIVAVGPEHFYGTNDHYFLDPYLQSWEMYLGLAWSYVVYYSPSEVRVVAEGFDFANGINISPDGKYVYIAELLAHKIHVYEKHANWTLTPLKSLDFNTLVDNISVDPETGDLWVGCHPNGMKIFFYDSENPPASEVLRIQNILTEEPKVTQVYAENGTVLQGSTVASVYKGKLLIGTVFHKALYCEL
Question: Which “survival, pretreated animals” value ([2]; i.p. injection before LD100 dose of LPS) does the source give for B2 here?
Answer: The value was 60%.

Question: And the “survival, post-treated animals” value ([2]; i.p. injection up to 2 hours after LD100 dose of LPS)?
Answer: Its value is 30%.

B3: K243H: site-directed single amino acid change mutant of rabbit PON3, SEQ ID NO:12 (protein, listed as Oryctolagus cuniculus)
chain: MAKLLLLTLLGASLAFVGERLLAFRNSFGAVQELEPVEPQNCVLIEGLENGSEDIDILPSGLAFISSGLKYPGMPNFAPDEPGKIFLIDMNEKNPRAQELEISNGFEKESFNPHGISTFIDKDHTVYLYVVNHPHMKSTVEIFKFEEQQRSLVHLKTIKHELLKSVNNIVVLGPEQFYATRDHYFTNYVLALLEMFLDLHWTSVLFYSPKEVKVVAKGFSSANGITVSLDKKYVYVADATAHNVHVMEKHDNWDLTELKVIHLDTLVDNLSVDPATGDILAGCHPNGMKLLNYNPEDPPGSEVLRIQNVLSEKPRVSTVYTNDGSVLQGSTVASVYQGKILIGTIFHKTLYCVL
Question: Which “specific activity compared to the wild type (fraction)” value [3] does the source give for B3 here?
Answer: The value was “about ⅓”.

B4: L281W: site-directed single amino acid change mutant of rabbit PON3, SEQ ID NO:14 (protein, listed as Oryctolagus cuniculus)
chain: MAKLLLLTLLGASLAFVGERLLAFRNSFGAVQELEPVEPQNCVLIEGLENGSEDIDILPSGLAFISSGLKYPGMPNFAPDEPGKIFLIDMNEKNPRAQELEISNGFEKESFNPHGISTFIDKDHTVYLYVVNHPHMKSTVEIFKFEEQQRSLVHLKTIKHELLKSVNNIVVLGPEQFYATRDHYFTNYVLALLEMFLDLHWTSVLFYSPKEVKVVAKGFSSANGITVSLDKKYVYVADATAKNVHVMEKHDNWDLTELKVIHLDTLVDNLSVDPATGDIWAGCHPNGMKLLNYNPEDPPGSEVLRIQNVLSEKPRVSTVYTNDGSVLQGSTVASVYQGKILIGTIFHKTLYCVL
Question: With B4 as the molecule, how does the “specific activity compared to the wild type (fraction)” value [3] read?
Answer: Its value is “about ⅓”.

B5: rPON3: recombinant rabbit PON3 expressed in 293T cells or E. coli BL21(DE3) (protein)
chain: AKLLLLTLLGASLAFVGERLLAFRNSFGAVQELEPVEPQNCVLIEGLENGSEDIDILPSGLAFISSGLKYPGMPNFAPDEPGKIFLIDMNEKNPRAQELEISNGFEKESFNPHGISTFIDKDHTVYLYVVNHPHMKSTVEIFKFEEQQRSLVHLKTIKHELLKSVNNIVVLGPEQFYATRDHYFTNYVLALLEMFLDLHWTSVLFYSPKEVKVVAKGFSSANGITVSLDKKYVYVADATAKNVHVMEKHDNWDLTELKVIHLDTLVDNLSVDPATGDILAGCHPNGMKLLNYNPEDPPGSEVLRIQNVLSEKPRVSTVYTNDGSVLQGSTVASVYQGKILIGTIFHKTLYCVL
Question: With B5 as the molecule, how does the statinase activity ([4]; 1 hour post-induction) read?
Answer: Its statinase activity is 8663 U/ml.

Question: What about the statinase activity ([4]; 2 hours post-induction) of the same molecule?
Answer: Its statinase activity is 6178 U/ml.

Question: And the statinase activity ([4]; 4 hours post-induction)?
Answer: Its statinase activity is 5872 U/ml.

Question: What about the statinase activity ([4]; 16 hours post-induction) of the same molecule?
Answer: Its statinase activity is 8436 U/ml.

Question: What about the statinase activity ([4]; time point 0 (time of IPTG induction)) of the same molecule?
Answer: Its statinase activity is 257 U/ml.
